From article PMC10963267, “Rapid discovery of high-affinity antibodies via massively parallel sequencing, ribosome display and affinity screening” (Nature Biomedical Engineering, 2023)

Tests used:
[1] = biological target: T1, hen egg lysozyme (HEL), biotinylated (Gallus gallus (hen egg white), UniProt P00698, biotin); experiment: BLI; HEL–biotin (25 µg ml^−1, 400 s) loaded on SA tip; nanobody from periplasmic extract at 50 nM in SuperBlock PBS; association 400 or 500 s, dissociation 600 s; referenced to a non-loaded SA tip; one concentration, 1:1 fit; Octet Red384; conditions: one partner purified
T1 construct: hen egg lysozyme, bought as HEL–biotin; In deep screening it was pre-complexed 1:1 with AF532-labelled streptavidin; in BLI it was loaded on a streptavidin tip; source: bought: GeneTex (GTX82960-pro)
T1 sequence (P00698 19-147): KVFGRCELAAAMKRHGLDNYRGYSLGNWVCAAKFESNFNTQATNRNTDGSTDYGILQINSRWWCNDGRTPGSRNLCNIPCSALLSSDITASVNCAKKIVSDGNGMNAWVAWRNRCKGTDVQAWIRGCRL

[2] = biological target: T2, human epidermal growth factor receptor 2 (HER2), biotinylated (Homo sapiens, UniProt P04626, biotin); experiment: BLI; human HER2–biotin (5 µg ml^−1, 30 s) loaded on SA tip; purified Fab at 20 nM; DPBS with 0.1% BSA and 0.02% Tween 20; association 300 s, dissociation 600 s; one concentration, 1:1 fit; conditions: both partners purified
T2 construct: biotinylated human HER2, bought; also called ERBB2; source: bought: Acro Biosystems (HE2-H822R)

B1: anti-HEL nanobody C2 (VHH)
VHH: QVQLQESGGGLVQAGGSLRLSCAASGNISADASMGWYRQAPGKEREFVAAIARGATTYYADSVKGRFTISRDNAKNTVYLQMNSLKPEDTAVYYCAVDQYDVTKRYIGHIYWGQGTQVTVSS
notes: synthetic nanobody from the yeast surface display library, picked as a random colony after R3 MACS; Framework is that of the library; source: E. coli, periplasmic extract (vector pSBinit)
B1: binds [1].

B2: anti-HER2 Fab HER20003 (Fab, V domains shown)
VH: QVQLVQSGAEVKKPGESLKISCKGSGYSFTSYWIAWVRQMPGKGLEYMGLIYPGDSDTKYSPSFQGQVTISVDKSVSTAYLQWSSLKPSDSAVYFCARHDVAYCSSSRCLTWPEYFQHWGQGTLVTVSS
VL: QSVLTQPPSVSAAPGQKVTISCSGSSSNIGNNYVSWYQQLPGTAPKLLIYGHTNRPAGVPDRFSGSKSGTSASLAISGFRSEDEADYYCASWDYTLSGWVFGGGTKLTVL
notes: as the heavy chain of m31 (G98A) with another CDR H3; as the light chain of m31; source: CHO cells, transiently transfected, purified (CaptureSelect CH1-XL)
A Kd [2] of 2.8 nM was found for B2 in this work.

B3: anti-HER2 Fab HER20013 (Fab, V domains shown)
VH: QVQLVQSGAEVKKPGESLKISCKGSGYSFTSYWIAWVRQMPGKGLEYMGLIYPGDSDTKYSPSFQGQVTISVDKSVSTAYLQWSSLKPSDSAVYFCARHDVGYCSTSRCLTWPEYFQHWGQGTLVTVSS
VL: QSVLTQPPSVSAAPGQKVTISCSGSSSNIGNNYVSWYQQLPGTAPKLLIYGHTNRPAGVPDRFSGSKSGTSASLAISGFRSEDEADYYCASWDYTLSGWVFGGGTKLTVL
notes: as the heavy chain of m31 (G98A) with another CDR H3; as the light chain of m31; Top clone of the ML set (ml/mut); source: CHO cells, transiently transfected, purified (CaptureSelect CH1-XL)
A Kd [2] of 0.0607 nM was found for B3 in this work.

B4: anti-HER2 Fab HER20015 (Fab, V domains shown)
VH: QVQLVQSGAEVKKPGESLKISCKGSGYSFTSYWIAWVRQMPGKGLEYMGLIYPGDSDTKYSPSFQGQVTISVDKSVSTAYLQWSSLKPSDSAVYFCARHDVGYCDTPTCDKWPEYFQHWGQGTLVTVSS
VL: QSVLTQPPSVSAAPGQKVTISCSGSSSNIGNNYVSWYQQLPGTAPKLLIYGHTNRPAGVPDRFSGSKSGTSASLAISGFRSEDEADYYCASWDYTLSGWVFGGGTKLTVL
notes: as the heavy chain of m31 (G98A) with another CDR H3; as the light chain of m31; From the ML set (ml/mut); source: CHO cells, transiently transfected, purified (CaptureSelect CH1-XL)
With B4 the “fold improvement in affinity over G98A” value [2] was greater than 1000 fold.

B5: anti-HER2 Fab HER20009 (Fab, V domains shown)
VH: QVQLVQSGAEVKKPGESLKISCKGSGYSFTSYWIAWVRQMPGKGLEYMGLIYPGDSDTKYSPSFQGQVTISVDKSVSTAYLQWSSLKPSDSAVYFCARHDVAYCSSSRCLEWPEYFQHWGQGTLVTVSS
VL: QSVLTQPPSVSAAPGQKVTISCSGSSSNIGNNYVSWYQQLPGTAPKLLIYGHTNRPAGVPDRFSGSKSGTSASLAISGFRSEDEADYYCASWDYTLSGWVFGGGTKLTVL
notes: as the heavy chain of m31 (G98A) with another CDR H3; as the light chain of m31; From the HER2affmat library; source: CHO cells, transiently transfected, purified (CaptureSelect CH1-XL)
In the case of B5, the “fold improvement in affinity over G98A” value [2] is reported as roughly 300 fold.

B6: anti-HER2 Fab HER20004 (Fab, V domains shown)
VH: QVQLVQSGAEVKKPGESLKISCKGSGYSFTSYWIAWVRQMPGKGLEYMGLIYPGDSDTKYSPSFQGQVTISVDKSVSTAYLQWSSLKPSDSAVYFCARHDVGQCDSSNCAKWPEYFQHWGQGTLVTVSS
VL: QSVLTQPPSVSAAPGQKVTISCSGSSSNIGNNYVSWYQQLPGTAPKLLIYGHTNRPAGVPDRFSGSKSGTSASLAISGFRSEDEADYYCASWDYTLSGWVFGGGTKLTVL
notes: as for B2
A Kd [2] of 3.4 nM was found for B6 in this work.

B7: anti-HER2 Fab HER20007 (Fab, V domains shown)
VH: QVQLVQSGAEVKKPGESLKISCKGSGYSFTSYWIAWVRQMPGKGLEYMGLIYPGDSDTKYSPSFQGQVTISVDKSVSTAYLQWSSLKPSDSAVYFCARHDVGYCMSSNCAKWPEYFQHWGQGTLVTVSS
VL: QSVLTQPPSVSAAPGQKVTISCSGSSSNIGNNYVSWYQQLPGTAPKLLIYGHTNRPAGVPDRFSGSKSGTSASLAISGFRSEDEADYYCASWDYTLSGWVFGGGTKLTVL
notes: as for B5
B7: binds [2].

B8: anti-HER2 Fab HER20025 (Fab, V domains shown)
VH: QVQLVQSGAEVKKPGESLKISCKGSGYSFTSYWIAWVRQMPGKGLEYMGLIYPGDSDTKYSPSFQGQVTISVDKSVSTAYLQWSSLKPSDSAVYFCARHDVGYCDTPTCNKWPEYFQHWGQGTLVTVSS
VL: QSVLTQPPSVSAAPGQKVTISCSGSSSNIGNNYVSWYQQLPGTAPKLLIYGHTNRPAGVPDRFSGSKSGTSASLAISGFRSEDEADYYCASWDYTLSGWVFGGGTKLTVL
notes: as the heavy chain of m31 (G98A) with another CDR H3; as the light chain of m31; From the random set (random/mut); source: CHO cells, transiently transfected, purified (CaptureSelect CH1-XL)
A Kd [2] of 0.283 nM was found for B8 in this work.

B9: anti-HER2 Fab HER20008 (Fab, V domains shown)
VH: QVQLVQSGAEVKKPGESLKISCKGSGYSFTSYWIAWVRQMPGKGLEYMGLIYPGDSDTKYSPSFQGQVTISVDKSVSTAYLQWSSLKPSDSAVYFCARHDVAYCDSDRCAKWPEYFQHWGQGTLVTVSS
VL: QSVLTQPPSVSAAPGQKVTISCSGSSSNIGNNYVSWYQQLPGTAPKLLIYGHTNRPAGVPDRFSGSKSGTSASLAISGFRSEDEADYYCASWDYTLSGWVFGGGTKLTVL
notes: as for B5
B9: binds [2].

B10: anti-HER2 Fab HER20006 (Fab, V domains shown)
VH: QVQLVQSGAEVKKPGESLKISCKGSGYSFTSYWIAWVRQMPGKGLEYMGLIYPGDSDTKYSPSFQGQVTISVDKSVSTAYLQWSSLKPSDSAVYFCARHDVGWCTSSNCAKWPEYFQHWGQGTLVTVSS
VL: QSVLTQPPSVSAAPGQKVTISCSGSSSNIGNNYVSWYQQLPGTAPKLLIYGHTNRPAGVPDRFSGSKSGTSASLAISGFRSEDEADYYCASWDYTLSGWVFGGGTKLTVL
notes: as for B5
For B10, the “fold improvement in affinity over G98A” value [2] was roughly 300 fold.

B11: anti-HER2 Fab HER20011 (Fab, V domains shown)
VH: QVQLVQSGAEVKKPGESLKISCKGSGYSFTSYWIAWVRQMPGKGLEYMGLIYPGDSDTKYSPSFQGQVTISVDKSVSTAYLQWSSLKPSDSAVYFCARHDVGLCSSSNCAKWPEYFQHWGQGTLVTVSS
VL: QSVLTQPPSVSAAPGQKVTISCSGSSSNIGNNYVSWYQQLPGTAPKLLIYGHTNRPAGVPDRFSGSKSGTSASLAISGFRSEDEADYYCASWDYTLSGWVFGGGTKLTVL
notes: as for B5
B11: binds [2].

B12: anti-HER2 Fab HER20010 (Fab, V domains shown)
VH: QVQLVQSGAEVKKPGESLKISCKGSGYSFTSYWIAWVRQMPGKGLEYMGLIYPGDSDTKYSPSFQGQVTISVDKSVSTAYLQWSSLKPSDSAVYFCARHDVAYCSSSRCLDWPEYFQHWGQGTLVTVSS
VL: QSVLTQPPSVSAAPGQKVTISCSGSSSNIGNNYVSWYQQLPGTAPKLLIYGHTNRPAGVPDRFSGSKSGTSASLAISGFRSEDEADYYCASWDYTLSGWVFGGGTKLTVL
notes: as for B5
For B12, the “fold improvement in affinity over G98A” value [2] was roughly 300 fold.

B13: anti-HEL nanobody M15 (VHH)
VHH: QVQLQESGGGLVQAGGSLRLSCAASGTISSQKLMGWYRQAPGKEREFVAAINDGATTNYADSVKGRFTISRDNAKNTVYLQMNSLKPEDTAVYYCAAYYDVRGYYWGTFGYWGQGTQVTVSS
notes: synthetic nanobody from the yeast surface display library; also called VHH-M15; source: E. coli, periplasmic extract (vector pSBinit)
A Kd [1] of 9.81 nM was found for B13 in this work.

B14: anti-HEL nanobody C1 (VHH)
VHH: QVQLQESGGGLVQAGGSLRLSCAASGSIFWAGYMGWYRQAPGKEREFVAAIDYGANTYYADSVKGRFTISRDNAKNTVYLQMNSLKPEDTAVYYCAVDRQPYYRRDNSHLYWGQGTQVTVSS
notes: as for B1
B14: binds [1].

B15: anti-HEL nanobody M5 (VHH)
VHH: QVQLQESGGGLVQAGGSLRLSCAASGSIFYYTDMGWYRQAPGKEREFVASIGYGGITYYADSVKGRFTISRDNAKNTVYLQMNSLKPEDTAVYYCAVQRSFESYGYWGHVYWGQGTQVTVSS
notes: synthetic nanobody from the yeast surface display library; also called VHH-M5; source: E. coli, periplasmic extract (vector pSBinit)
A Kd [1] of 19 nM was found for B15 in this work.

B16: anti-HEL nanobody M6 (VHH)
VHH: QVQLQESGGGLVQAGGSLRLSCAASGSISRDPDMGWYRQAPGKEREFVASISGGTTTYYADSVKGRFTISRDNAKNTVYLQMNSLKPEDTAVYYCAVQRSFESYGYWGHVYWGQGTQVTVSS
notes: synthetic nanobody from the yeast surface display library; also called VHH-M6; source: E. coli, periplasmic extract (vector pSBinit)
A Kd [1] of 14.2 nM was found for B16 in this work.
